Results: the nanobody polyreactivity screen of Harvey et al. (2022)

Test: yeast display, Sf9 membrane polyspecificity reagent, FACS + sequencing; frameworks hold sequencing errors
How it was run: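 Galactose induction of a Saccharomyces cerevisiae BJ5465 synthetic nanobody display library ran 36–48 hours. The cells were then stained for 1 hour at 4 °C with 10% biotinylated, detergent-solubilized Sf9 membrane reagent, pulled down on streptavidin microbeads and FACS-sorted into low and high (top ~1%) gates on expression and reagent-binding fluorescence. Labels for polyreactivity follow the gate of origin.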

Sequence	polyreactivity (PSR sort gate)
QVQLVESGGGLVQAGGSLRLSCAASGRIFVGNTMGWYRQAPGKDRELVAAISWRGRTSYADSVKGRFTISRDNAKNTVYLQMNSLKPEDTAVYYCNAEHAGASRYYYIANWMDYWGQGTQVTVSS	low polyreactivity
QVQLVESGGGLVQAGGSLRLSCAASGSTFGVNAMGWYRQAPGKERELVAVITRSGGSTYYADSVKGRFTISRDNAKNTVYLQMNSLKPEDTAVYYCATSGVVDWGQGTQVTVSS	low polyreactivity
QVQLVESGGGLVQAGGSLRLSCAASGSSFIINAMGWYRKAPGKERELVAAITSGGSTSYADSVKGRFTISRDNAKYTVYLQMNSLNPEDTAVYYCATDHDIGYNFNRYDYWGLGTQVTVSS	low polyreactivity
QVQLVESGGGLVQAGGSLRLSCAASGRTFSVNAMGWYRQAPGKERELVAAISWDGGSTYYADSVKGRFTISRDNAKNTDYLQMNSLKPEDTAVYYCNKDLYYAYDYWRQGTQVTVSS	low polyreactivity
QVQLVESGGGLVQAGGSLRLSCAASGRTLDGNDMGWYRQPPGKERELVAAITVTGSSTYYADSVKGRFTISRDNAKNTVYLQMNSLKPEDTAVYYCAKASGGDVRYSYSYRMDYWGQGTQVTVSS	low polyreactivity
QVQLVESGGGLVQAGGSLRLSCAASGRIFYEYAMGWYRQAPGKERELVAAITRGDSTYYADSVKGRFTISRDNAKNTVYLQMNSLKPEDTAVYFCNAGVFDYSGDSNYWGQGTQVTVSS	low polyreactivity
QVQLVESGGGLVQAGGSLRLSCAASGSIFPFYAMGWYRQAPGKERELVAAISWSVGNTYYADSVKGRFTISRDNAKNTVYLQMNRLKPEDTAVYYCAARQDPPLGYDYWGQGTQVTVSS	low polyreactivity
QVQLVESGGGLVQAGGSLRLSCAASGFTFGHYAMGWYRQAPGKERELVAAISKSGTRTYYADSVKGRFTISRDNAKNTVYLLMNSLKPEDTAVYYCATTAYNGYDYWGQGTQVTVSS	high polyreactivity
QVQLVESGGGLVQAGGSLRLSCADSGFTFKSYTMGWYRQAPGKERELVAAISRRDGSTYYADSVKGRFTISRDNAKNTVYLQMNSLKPEDTAVYYCAKVWYGDRNIDRYDYWGQGTQVTVSS	high polyreactivity
QVQLVESGGGLVQAGGSLRLSCAASGRTFPSYAMGWYRQAPGKERELVAAITRGGSTNYADSVKGRFTISRDNAKNTVYLQMNSLKPEDTAVYYWAAARWRWQLARDDYWGQGTQVTVSS	high polyreactivity
QVQLVESGGGLVQAGGSLRLSCAASGSTISYYAMGWYRQAPGKERELVAAITWNGGSTYYADSVKGRFTISRDNAKNTVYLQMNSLKPEDTAVYYCAKDSYYYDYDYWGQGTQVTVSS	low polyreactivity
QVQLVESGGGLVQAGGNLRLSCAASGGIFYLYAMGWYRPAPGKERELVASINWRSATTYYADSVKGRFTISRDNAKNTVYLQMNSLKPEDTAVYYCNVQWYGGYDYWGQGSQVTVSS	low polyreactivity
PVQLVESGGGLVQAGGSLRLSCAASGRIFAYYAMGWYRQATGKERELVAAITRRGSTNYADSVKGRFTISGDNAKNTVYLQMNSLKQEVTAFYYCAARDAIYGSDYWGQGTQVNVSS	high polyreactivity
QVQLVESGGGLVQAGGSLRLSCAASGLTFSTYDMGWYRQAPGKERELVAAITSGDGSTYYADSVKGRFTISRDTAKNTVYLQMNSLKPEDTAVYYCAADYLEWYGDVLFPYDYWGQGTQVTVSS	low polyreactivity
QVQLVESGGCLVQAGGRLRLSCAASGRIFRGYAMGWYRQAPGKERELVARITSGGRTYYADSVKGRFTISRDNAKNTVYLQMNSLKPEDTAVYYCAAPPSVRTRKAYYYWGQGTQVTVSS	high polyreactivity
QVQLVESGGGLVQAGGSLRLSCAASGSIFVWYAMGWYRQAPGKERELVAAITSSGGSTYYADSVKGRFTISRDYAKNTVYLQLNSLKPEDTAVYYCAKTPSRRGYYWGQGTQVTVSS	low polyreactivity
QVQLVESGGGLVQAGGSLRLSCAASGLIFPPNAMGWYRQAPGKERELVASITRSGVSTNYADSVKGRFTISRDNAKNTVYLQMNSLKPEDTAVYYCAAVIYSTYTIPNDEMGYWGHGTQVTVSS	low polyreactivity
QVQLGESGGVLVQEGGSLRLSSAASGSILSKYAIGWYRQAPGKERELVAVITSNSGRKYYADYLKGRFTISRDNAKNTVYLQMNSLKPEDTAVYYCAAQRRSSQNYYWGQGTQVTVSS	high polyreactivity
QVQLVESGGGLVQAGGSLRLSCAASGFTLYFYVMGWYRQAPGKERELVAAITSGGSTYYADSVKGRFTISRDNAKNTVYLQMNSLKPEDTAVYYCAARRSPSRRYLGNYWGQGTQVTVSS	high polyreactivity
QVQLVESGGGLVQAGGSLRLSCAASGSTFYLNTMGWYRQAPGKERELVASISRSGGTTYYADSVKGRFTISRDNAKNTVYLQMNSLKPEDTAVYYCAKRYYFTHAYSRTFYYWGQGTQVTVSS	high polyreactivity
QVQLVESGGGLVQAGGSLRLSCAASGSIFRSYAMGWYSPSPGKERELVAAITRSGGSTYYADSVKGRFTISRDNAKNTVYLQMNSLKPEDTAVYYCAAEYYSYTWGWGHGYWGQGTQVTVSS	high polyreactivity
QVQLVESVGVLVQAGARLRLSCAASGSIFRTNTMGSYRQAPVKERELVAAITAIGDSTYYGDSVKGRFTISRDNAKNTVYLQMNSLKPEDTAVYYCAAEKVSWGYHFYSSSDYWGQATQVTVSS	low polyreactivity

Sequence	polyreactivity (PSR sort gate)
QVQLVESGGGLVQAGGSLRLSCAASGSTLAPYVMGWYSQAPGKERELVAVISTRTGRTYYADSVKGRFTISRDNAKNTVSLQMNSLKPEDTAVYYCNAYPHAYTGSTREGDYWGQGTQVTVSS	high polyreactivity
QVQLVESGGGLVQAGGSLRLSCAASGSIFLVYAMGWYRQAPGKERELVAAISRSGRTYADSVKGRFTISRDNAKNTVYLQMNSLKPEDTAVYYCNKLAVRPGYGSTYDYWGQGTQVTVSS	high polyreactivity
QVHLVESGGVLLQAGGSLRLSCAASGFIFKWNAMGWYRQAPGKERELVAAISWHGGSTNYADSVKGRFTISRDNAKNTVYLQMNSLKPEDTAVYYCAKQQSPYYPSTLDYWGQGTQVTVSS	high polyreactivity
QVQLVESGGGLVQAGGSLRLSCAASGSIFDGYAMGWYTQAPGKERELVADINNGADTYYADSVKGRFTISRDNAKNTVYLQMYSLKPEDTAVYYCAARYGTDTDIQNVARYDYWGQGTQVTVSS	low polyreactivity
QVQLVESVGGLVQAGGSLRLSCAASGFTFTRYAMGWYRQAPGKERELVAAISSGGDTYYADSVKGRFTISRDNAKNTVYLQMNSLKPEDTAVYYCAADQSSLDYGNDYWGQGTQVTVSS	low polyreactivity
QVQLVESGGGLVQAGGSLRLSCAASRSTFRYYTMGWYRQSPGKERELVARISRSGGSTYYADSVKGRFTISRDNAKNTVYLQMNSLKPEDTSVYYCAALYYVKPGQRYDYWGQGTQVTVSS	high polyreactivity
QVQLVESGGGLVQAGGSLRLSCAASGRTSYYAMGWYRQAPGKERELVAAINSGDSTTYADSVKGRFTISRDNAKNNVYLQMNSLKPEDTAVYYCATALYDWYSLEFDYWGQGTQVTVSS	low polyreactivity
QVQLVESGGGLVQAGGSLRLSCAASGSIFKYYAMGWYRQATGKERELVAAISSGGSTKYADSVKGRFTITRDNAKNTVYLQMNSLKPEDTAVYYCAARDPSRHARRAYDYWGQGTQVTVSS	low polyreactivity
QVQLVESGGGLVQAGGSLRLSCAASGRTFYKYGMVLYRKAPGKERELVAAIRWSGGSTYYADSVKGRFTISRDNAKYTVYFQMNSLKPEDTAVYYCATRSGFGYGYWGQGTQVNVSS	high polyreactivity
QVQLVESGGGLVQAGGSLRLSCAASGRTFVFNAMGWYRQAPGKERELVAAITISGGSTYYADSVKGRFTISRDNAKNTVYLQMNSLKPEDTAVYYCNADSKIEVFSYIYDYWGQGTQVTVSS	high polyreactivity
QVQLVESGGGLVQAGGSLRLSCAASGSTFSAYTMGWDRQAPGKERELVAAIRFDGGRTYYADSVKGRFTISRDNAKNTVYLQMNSLKPEDTAVYYCPAWQSYSYDYWGQGTQLTVSS	high polyreactivity
QVQLVDSGGGLVQAGGSLRLSCAASGFTFYSYAMGWYRPAPGKERELFAAISKSGGRSYYADSVKGRFTISRDNAKNTVYLQMKSLKPEDTGVYYCNTYGAFRSLETYDYWGQGSQVTVSS	high polyreactivity
QVQLVESGGGLVQAGGSLRISCAASGFIISFYAMGWYRQAPRKERELVAAIKLSGGSTYYADSVKGRFTISRDNAKNTVYLQMNSLKPEETAVYYCNDVQYFSIPKPVWLFVLRYYYWGHGTQVTVSS	low polyreactivity
QVQLVESGGGLVQAGGSLRLICAASGLIFSYYAMGWYRQAPGKERELVAAISRGGSTNYADSVKGRFTISRDNAKNTVYLQMNSLKPEDTAVYYCAARFVVRRDYGYWGQGTQVTVSS	high polyreactivity
QVQLVESGGGLVQAGGSLRLSCAASGRTFPYYAMGWYRQAPGKERELVARIRSDGSTNYADSVKGRFTISRDNAKNTVYLQINSLKPDDTAVYDCAAKPYPSLFFHYGYWGQGTQVTVSS	low polyreactivity
QVQLVESGGGLVQAGGSLLLSCAASGRTFATNAMGWNRQAPGKERELVADISGGGSTYYADSVKGRFTISRDNAKNTVYLQMNSMKPEDTAVYYCAARDYHWFQWYDYWGQGTQVTVSS	low polyreactivity
QVQLVESGGGLVQAGGSLRLSCAASGSIFTVNAMGWYRQAPGKERELVATITNGGGTYYADSVKGRFTISRDNAKNTVYLQMNSLKPEDTAVYYCAARTWGHYDYWGQGTQVTVSS	low polyreactivity
QVQLVESGGGLVQAGGSLRLTCAASGNIFVGNDMGWYRQAPGKERELVAAISSGDTTSYADSVKGRFTISRDNAKNTVYLKMNSLKPEETAVYYCAVDRSLSPFAYDYWGQGTQVTVSS	low polyreactivity
QVQLVESGGGLVQAGGSLRLSCAASGSIFKKYAKGWYIQAPGKERELVAAISKSGGSTYYADSVKGRFTISRDNAKTTVYLQMNSLKPEDTAVYYCAAAAGGSAYWDYDYWGQGTQVTVSS	low polyreactivity
QVQLVESGGGLVQAGGSLRLSCAASGSIFGNYAMGWYRQAPGKEREFVARISRGARTYYADSVKGRFTISRDNAKNTVYLQMNSLKPEDTAVYYCNARDYSVSYSVRFDYWGQGTQVTVSS	high polyreactivity
QDQLVESGGGLVQAGGSQRLSCAASGFTFRRYAMGWYRQEPGKERELVAVITTAGSTNYADSVKGRFTISRDNAKNTVYLPMNSLKPEDTAVYYCATDNGTRKGRYDYWGQGTQVTVSS	low polyreactivity
